Results reported in article PMC7263513 (bioRxiv, 2020).

Experiments:
[1] = target: T1, SARS-CoV-2 receptor binding domain (RBD) (Severe acute respiratory syndrome …, UniProt P0DTC2); assay: cell-based or functional assay
[2] = target: T1, SARS-CoV-2 receptor binding domain (RBD); assay: ELISA

B1: C210 (antibody, V domains shown)
VH: EVQLVESGGGLIQPGGSLRLSCAASGFTVSSNYMSWVRQAPGKGLEWVSVIYSGGSTFYADSVKGRFTFSRDNSKNTLYLQMNSLRAEDTAVYYCARDLMAYGMDVWGQGTTVTVSS
VL: DIQLTQSPSFLSASVGDRVTITCRASQGISSYLAWYQQKPGKAPKLLIYAASTLQSGVPSRFSGSGSGTEFTLTISSLQPEDFATYYCQQLNSYPQGTFGGGTKVEIK
IC50 of neutralisation of SARS-CoV-2 pseudovirus (293T_(ACE2) cells) [1]: 0.0507 µg/mL

B2: C202 (antibody, V domains shown)
VH: EVQLVESGGGLVQPGGSLRLSCAASGFTVSSNYMSWVRQAPGKGLEWVSLIYSGGSTYYADSVKGRFTISRDNSKNTLYLQMNSLRAEDTAVYYCARDTLGRGGDYWGQGTLVTVSS
VL: DIQLTQSPSSLSASVGDRVTITCQASQDISNYLNWYQQKPGKAPKLLIYDASNLETGVPSRFSGSGSGTDFTFTISSLQPEDIATYYCQQYDNLPRSFGQGTKLEIK
IC50 of neutralisation of SARS-CoV-2 pseudovirus (293T_(ACE2) cells) [1]: > 1 µg/mL

B3: C165 (antibody, V domains shown)
VH: QVQLVQSGAEVKKPGSSVKVSCKASGGTFSSYAINWVRQAPGQGLEWMGRIIPIVGIANYAQKFQGRVTITADKSSSTAYMELSSLRSEDTAVYYCARDLLDPQLDDAFDIWGQGTMVTVSS
VL: not shown
IC50 of neutralisation of SARS-CoV-2 pseudovirus (293T_(ACE2) cells) [1]: 0.0408 µg/mL

B4: C215 (antibody, V domains shown)
VH: EVQLLESGGGLVQPGGSLRLSCAASGFTFSSYAMSWVRQAPGKGLEWVSAITDSGDGTFYADSVKGRFTISRDNSKNTLYLQMNSLRAEDTAVYYCASEEDYSNYVGWFDPWGQGTLVTVSS
VL: not shown
IC50 of neutralisation of SARS-CoV-2 pseudovirus (293T_(ACE2) cells) [1]: > 1 µg/mL

B5: C207 (antibody, V domains shown)
VH: not shown
VL: EIVLTQSPATLSLSPGERATLSCRASQSVSSYLAWYQQKPGQAPRLLIYDASNRATGIPARFSGSGSGTDFTLTISSLEPEDFAVYYCQQRSNWPRGFGQGTKVEIK
IC50 of neutralisation of SARS-CoV-2 pseudovirus (293T_(ACE2) cells) [1]: 0.159 µg/mL

B6: C212 (antibody, V domains shown)
VH: QVQLVQSGAEVKKPGASVKVSCKASGYTVTGYYIHWVRQAPGQGLEWMGWISPNSGGTNYAQKFQGWVTMTRDMSITTAYMELSRLRSDDTAVYYCARERYFDLGGMDVWGQGTTVTVSS
VL: LTQPASVSGSPGQSITISCTGTSSDVGSYNLVSWYQQHPGKAPKLMIYEDSKRPSGVSNRFSGSKSGNTASLTISGLQAEDEADYYCCSYAGSSTRLFGGGTKLTVL
binding result [2]: no binding (tested: >1000 ng/ml)

B7: C214 (antibody, V domains shown)
VH: QVQLVESGGGVVQPGRSLRLSCAASGFTFSSYGMHWVRQAPGKGLEWVAAIWYDGSNKHYADSVKGRFTISRDNSKNTLYLQMNSLRAEDTAVYYCARDVGRVTTWFDPWGQGTLVTVSS
VL: not shown
IC50 of neutralisation of SARS-CoV-2 pseudovirus (293T_(ACE2) cells) [1]: > 1 µg/mL

B8: C146 (antibody, V domains shown)
VH: EVQLVESGGGLVKPGGSLRLSCAASGLTFTAYRMNWVRQAPGKGLEWLSSISNTNGDIYYADSVKGRFTISRDNAKNSLYLQMNSLRADDTAVYYCARDVASNYAYFDLWGQGTLVTVSS
VL: QSALTQPASVSGSPGQSITISCTGTSSDIGVYNYISWSQQHPGKAPKVMIYDVTNRPSGVSNRFSGSKSGNTASLTISGLQAEDEADYYCSSYRGSSTPYVFGTGTKVTVL
binding result [2]: no binding (tested: >1000 ng/ml)

B9: C164 (antibody, V domains shown)
VH: EVQLVESGGGLVQPGGSLRLSCAASGFSVSTKYMTWVRQAPGKGLEWVSVLYSGGSDYYADSVKGRFTISRDNSKNALYLQMNSLRVEDTGVYYCARDSSEVRDHPGHPGRSVGAFDIWGQGTMVTVSS
VL: QSALTQPASVSGSPGQSITISCTGTSNDVGSYTLVSWYQQYPGKAPKLLIFEVTKRSSGISNRFSGSKSGNTASLTISGLQGEDEADYYCCSYAGASTFVFGGGTKLTVL
IC50 of neutralisation of SARS-CoV-2 pseudovirus (293T_(ACE2) cells) [1]: 0.239 µg/mL

B10: C208 (antibody, V domains shown)
VH: EVQLVQSGAEVKKPGESLKISCKGSGYSFTSYWIGWVRQMPGKGLEWMGIIYPGDSDTRYSPSFQGQVTISADKSISTAYLKWSSLKASDSAMYYCARGPNLQNWFDPWGQGTLVTVSS
VL: EIVLTQSPGTLSLSPGERATLSCRASQSVSGSYLAWYQQRPGQAPRLLIYGASSRATGIPDRFSGSGSGTDFTLTISRLEPEDFAVYYCQQYGSSLTFGGGTKVEIK
binding result [2]: no binding (tested: >1000 ng/ml)

B11: C201 (antibody, V domains shown)
VH: EVQLVESGGGLVQPGRSLRLSCAASGFTFDDYAMHWVRQAPGKGLEWVSGISWNSGSIGYADSVKGRFTISRDNAKNSLYLQMNSLRAEDTALYYCVKGVEYSSSSNFDYWGQGTLVTVSS
VL: IRMTQSPSSVSASVGDRVTITCRASQGISSWLAWYQQKPGKAPKLLIYVESSLQSGVPSRFSGSGSGTDFTLTISSLQPEDFATYYCQQANSFPLTFGGGTKVEIK
IC50 of neutralisation of SARS-CoV-2 pseudovirus (293T_(ACE2) cells) [1]: > 1 µg/mL

B12: C216 (antibody, V domains shown)
VH: EVQLVESGGGLVQPGGSLRLSCAASGFTFSSYDMHWVRQATGKGLEWVSAIGTAGDTYYPDSVKGRFTISRENAKNSLYLQMNSLRAGDTAVYYCARDRGSSGWYGWYFDLWGRGTLVTVSS
VL: not shown
IC50 of neutralisation of SARS-CoV-2 pseudovirus (293T_(ACE2) cells) [1]: > 1 µg/mL

B13: C211 (antibody, V domains shown)
VH: EVQLVESGGGLVQPGGSLRLSCAASEFTVSSNYMSWVRQAPGKGLEWVSVIYSGGSTFYADSVKGRFTISRDNSKNTLYLQMNSLRPEDTAVYYCARDYGDFYFDFWGQGTLVTVSS
VL: EIVMTQSPATLSVSPGERATLSCRASQSVSSNLAWYQQKPGQGPRLLIYGASTRATGIPARFSGSGSGTEFTLTISSLQSEDFAVYYCQQYNNWPRTFGQGTKVEIK
IC50 of neutralisation of SARS-CoV-2 pseudovirus (293T_(ACE2) cells) [1]: 0.0128 µg/mL

B14: C156 (antibody, V domains shown)
VH: QVQLVESGGGVVQPGRSLRLSCAASGFTFSNYGMHWVRQAPGKGLEWVAVISYDGNNKYYADSVKGRFTISRDNSKNTLYLQMNSLRAEDTAVYYCAKDPFPLAVAGTGYFDYWGQGTLVTVSS
VL: SYELTQPPSVSVAPGQTARISCGGNNIGSKNVHWYQQKPGQAPVLVVYDDSDRPSGIPERFSGSNSGNTATLTISRVEAGDEADYYCQVWDSSSDPWVFGGGTKLTVL
IC50 of neutralisation of SARS-CoV-2 pseudovirus (293T_(ACE2) cells) [1]: > 1 µg/mL

B15: C204 (antibody, V domains shown)
VH: EVQLLESGGGLEQPGGSLRLSCAASGFTFSTYAMSWVRQAPGKGLEWVSAISGSGAGTFYADSVKGRFTISRDNSKNTLYLQMNSLRAEDTAVYYCARESDCGSTSCYQVGWFDPWGQGTLVTVSS
VL: not shown
IC50 of neutralisation of SARS-CoV-2 pseudovirus (293T_(ACE2) cells) [1]: > 1 µg/mL
